Assay [1] has as its system Human Embryonic Stem Cells (H1 hESC line). Nature of the assay: RT-PCR of PDX1 and CDX2 at conclusion of third step of differentiation (Example 12). The following applies: end of third step; peptide given during first step. The class given is cell-based. From the text:
At the conclusion of the first step of the differentiation protocol, replicate sets of parallel wells for each treatment group were subjected to further step-wise differentiation. It is important to note that after the first three days, all wells undergoing continuing culture and differentiation received the same treatment. The protocol for this continuing differentiation is described below. […]
RT-PCR Analysis: RNA samples were purified by binding to a silica-gel membrane (Rneasy Mini Kit, Qiagen, CA) in the presence of an ethanol-containing, high-salt buffer followed by washing to remove contaminants. […] Yield and purity were assessed by A260 and A280 readings on a spectrophotometer. […]
(§1) Unless otherwise stated, all reagents were purchased from Applied Biosystems. […] For each primer/probe set, a Ct value was determined as the cycle number at which the fluorescence intensity reached a specific value in the middle of the exponential region of amplification. Relative gene expression levels were calculated using the comparative Ct method. […] The normalized amount of target was calculated as 2-ΔCt, assuming amplification to be 100% efficiency. […]

The test system is the same in assay [2]. As to the kind of experiment: RT-PCR of pancreatic differentiation markers at conclusion of step four of differentiation (Example 12). The format is cell-based. The following applies: end of step four; relative to commercial activin A or ACTN1. The procedure: Step 4 of the differentiation protocol was carried out over three days. Cells were fed daily by aspirating the medium from each well and replacing with a fresh aliquot (0.5 ml) of DMEM-high glucose supplemented with 1% B27, 100 ng/ml Noggin, 100 ng/ml Netrin-4 (R&D Systems; Cat #), 1 μM DAPT, and 1 μM Alk 5 inhibitor (Axxora; Cat #ALX-270-445). At the conclusion of the fourth step of differentiation, cells from some wells were harvested for analysis by RT-PCR to measure markers of differentiation.
RT-PCR Analysis: RNA samples were purified by binding to a silica-gel membrane (Rneasy Mini Kit, Qiagen, CA) in the presence of an ethanol-containing, high-salt buffer followed by washing to remove contaminants. The RNA was further purified using a TURBO DNA-free kit (Ambion, INC), and high-quality RNA was then eluted in water. Yield and purity were assessed by A260 and A280 readings on a spectrophotometer. […]
as §1

Where a chain is given by its changes, count along the chain named.

B1: ACTN4: activin A variant peptide, SEQ ID 5 (protein)
chain: GLECDGKVNLCCKKQLFVSFKDIGWNDWIIAPSGYHANHCSGLCPSHIAGTSGSSLSFHSTVINHYRMRGHSPFSDMGACCVPTKLRPMSMLYYDDGQNIIKKDIQNMIVEECGCS
In the case of B1, the “RT-PCR results for PDX1 and CDX2” value in assay [1] is reported as “in agreement”. Also, the “expression of downstream pancreatic differentiation markers (RT-PCR)” value in assay [2] is “comparable expression”.

B2: ACTN48: activin A variant peptide, SEQ ID 49 (protein)
chain: B1 chain with L16N, H39E, S75A, D76N, V82I
B2: the “RT-PCR results for PDX1 and CDX2” value in assay [1] is on record as “in agreement”. The “expression of downstream pancreatic differentiation markers (RT-PCR)” value in assay [2] was “comparable expression”.

(Values after patent US20110091971A1, “Differentiation of Pluripotent Stem Cells” (priority 2008, published 2011).)
